Measured values: patent US12570744 (AstraZeneca / MedImmune, dated 2026)

Experiments:
[1] = target: T1, human PD-1 expressed on the cell surface of engineered Jurkat cells (human, UniProt Q15116 25-288); assay: cell-based or functional assay
[2] = target: T2, human TIGIT expressed on the cell surface (human, UniProt Q495A1 22-244); assay: cell-based or functional assay
T2 sequence (looked up): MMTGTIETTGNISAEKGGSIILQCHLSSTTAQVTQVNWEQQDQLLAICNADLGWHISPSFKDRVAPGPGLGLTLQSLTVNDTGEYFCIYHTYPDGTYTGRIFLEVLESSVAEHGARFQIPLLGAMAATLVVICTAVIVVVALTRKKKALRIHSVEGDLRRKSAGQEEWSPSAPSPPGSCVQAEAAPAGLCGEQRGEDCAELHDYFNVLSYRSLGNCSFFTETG

[3] = target: T3, human PD-1 and human TIGIT co-expressed on Jurkat PD-1^+TIGIT^+ cells (human, UniProt Q15116 25-288; Q495A1 22-244); assay: cell-based or functional assay
[4] = target: T1, human PD-1 expressed on the cell …; assay: flow cytometry on PD-1^+ Jurkat cells
[5] = target: T2, human TIGIT expressed on the cell …; assay: flow cytometry on TIGIT^+ Jurkat cells
[6] = target: T3, human PD-1 and human TIGIT co-expressed …; assay: flow cytometry on PD-1^+TIGIT^+ Jurkat cells, mean
Source text: (§1) TIGIT⁻ cells. […] MFI=geometric mean fluorescence intensity; PD-1=programmed cell-death protein 1; TIGIT=T cell immunoreceptor with Ig and immunoreceptor tyrosine-based inhibitory motif domains. Cellular binding to human single expressing cell lines: Jurkat PD-1⁻ TIGIT⁺ and Jurkat PD-1⁺TIGIT⁻ or human double expressing Jurkat PD-1⁺ TIGIT⁺. Test and control article antibodies were detected with fluorescently conjugated goat anti human IgG secondary antibody and evaluated by flow cytometry.

[7] = target: T1, human PD-1 expressed on the cell …; assay: flow cytometry on PD-1^+TIGIT^- Jurkat cells, mean
[8] = target: T2, human TIGIT expressed on the cell …; assay: flow cytometry on PD-1^-TIGIT^+ Jurkat cells, mean
Source text: as §1

[9] = target: T1, human PD-1 expressed on the cell …; assay: flow cytometry on PD-1^+ Jurkat cells, Experiment #1
[10] = target: T1, human PD-1 expressed on the cell …; assay: flow cytometry on PD-1^+ Jurkat cells, Experiment #2
[11] = target: T2, human TIGIT expressed on the cell …; assay: flow cytometry on TIGIT^+ Jurkat cells, Experiment #1
[12] = target: T2, human TIGIT expressed on the cell …; assay: flow cytometry on TIGIT^+ Jurkat cells, Experiment #2
[13] = target: T3, human PD-1 and human TIGIT co-expressed …; assay: flow cytometry on PD-1^+TIGIT^+ Jurkat cells, Experiment #2
Source text: as §1

[14] = target: T1, human PD-1 expressed on the cell …; assay: flow cytometry on PD-1^+TIGIT^- Jurkat cells, Experiment #1
[15] = target: T1, human PD-1 expressed on the cell …; assay: flow cytometry on PD-1^+TIGIT^- Jurkat cells, Experiment #2
[16] = target: T2, human TIGIT expressed on the cell …; assay: flow cytometry on PD-1^-TIGIT^+ Jurkat cells, Experiment #1
Source text: as §1

[17] = target: T2, human TIGIT expressed on the cell …; assay: flow cytometry on PD-1^-TIGIT^+ Jurkat cells, Experiment #2
Source text: as §1

[18] = target: T1, human PD-1 expressed on the cell …; assay: flow cytometry on PD-1^+ Jurkat cells, mean of two experiments
[19] = target: T2, human TIGIT expressed on the cell …; assay: flow cytometry on TIGIT^+ Jurkat cells, mean of two experiments
[20] = target: T4, cyTIGIT (cynomolgus TIGIT, recombinant) (cynomolgus, UniProt A0A7N9I9V4 89-209); assay: SPR (BIAcore T200), PD-1/TIGIT DuetMab sample, cyTIGIT as ligand
T4 construct: Ligand in the BIAcore assay; The construct is not described
Method: (§2) Binding experiments were carried out using a BIAcore T200 instrument (BIAcore).

[21] = target: T5, recombinant human TIGIT protein (human, UniProt Q495A1 22-141); assay: SPR (BIAcore T200), PD-1/TIGIT DuetMab sample, huTIGIT as ligand
T5 construct: In the Octet assay it was used biotinylated on streptavidin sensors or in solution; Construct and tags are not described; also called huTIGIT; human TIGIT antigen
T5 sequence (looked up): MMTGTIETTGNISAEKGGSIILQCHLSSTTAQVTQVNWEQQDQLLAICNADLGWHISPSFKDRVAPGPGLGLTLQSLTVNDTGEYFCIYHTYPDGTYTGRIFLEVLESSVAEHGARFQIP
Method: as §2

[22] = target: T6, muTIGIT (mouse TIGIT, recombinant) (mouse (printed as 'mu'), UniProt P86176 29-148, limits assumed); assay: SPR (BIAcore T200), PD-1/TIGIT DuetMab sample, muTIGIT as ligand
T6 construct: Ligand in the BIAcore assay; The construct is not described
T6 sequence (looked up): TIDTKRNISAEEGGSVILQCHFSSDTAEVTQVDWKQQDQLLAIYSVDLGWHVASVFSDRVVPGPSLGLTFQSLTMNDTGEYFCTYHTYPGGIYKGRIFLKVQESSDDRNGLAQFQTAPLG
Method: as §2

[23] = target: T3, human PD-1 and human TIGIT co-expressed …; assay: flow cytometry on PD-1^+TIGIT^+ Jurkat cells, Experiment #1; PD-1^+TIGIT^+ Jurkat cells, Experiment #1
Source text: as §1

[24] = target: T2, human TIGIT expressed on the cell …; assay: flow cytometry (MFI) on 293 cells overexpressing human TIGIT; Kd row of the table under the graph, the concentration axis is [nM]
[25] = target: T7, cynomolgus TIGIT overexpressed on 293 cells (cynomolgus, UniProt A0A7N9I9V4 89-312); assay: flow cytometry (MFI) on 293 cells overexpressing cynomolgus TIGIT; Kd row of the table under the graph, the concentration axis is [nM]
T7 construct: whole, on cells
T7 sequence (A0A7N9I9V4 entry or part of it): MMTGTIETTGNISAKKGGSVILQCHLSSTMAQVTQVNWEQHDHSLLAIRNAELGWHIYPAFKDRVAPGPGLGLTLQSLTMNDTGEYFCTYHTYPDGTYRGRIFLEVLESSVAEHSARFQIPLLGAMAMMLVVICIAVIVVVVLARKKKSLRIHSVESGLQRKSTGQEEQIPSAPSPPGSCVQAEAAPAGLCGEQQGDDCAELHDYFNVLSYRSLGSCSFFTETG

T4 sequence (A0A7N9I9V4 entry or part of it): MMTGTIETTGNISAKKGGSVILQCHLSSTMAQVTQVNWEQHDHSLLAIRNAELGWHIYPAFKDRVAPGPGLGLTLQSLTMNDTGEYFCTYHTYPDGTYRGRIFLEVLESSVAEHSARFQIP
T3 sequence (Q15116 25-288, one chain of several): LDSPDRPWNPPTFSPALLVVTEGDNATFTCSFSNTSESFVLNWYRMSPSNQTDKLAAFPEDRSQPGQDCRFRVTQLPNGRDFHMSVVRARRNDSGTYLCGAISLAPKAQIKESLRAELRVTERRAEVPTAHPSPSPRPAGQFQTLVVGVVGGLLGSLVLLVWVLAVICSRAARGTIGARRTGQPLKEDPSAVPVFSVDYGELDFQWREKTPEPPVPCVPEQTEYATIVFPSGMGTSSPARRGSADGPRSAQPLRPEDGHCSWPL
T1 sequence (Q15116 25-288, change not shown): as the sequence (Q15116 25-288, one chain of several) above

B1: AZD2936 (PD-1/TIGIT bispecific DuetMab, LO115/VAR1 VHGL-VLGL(M-I)) (bispecific antibody, human IgG1, kappa, lambda)
heavy 1: EVQLVESGGGLVQPGGSLRLSCAASGFTFSDYGMHWVRQAPGKGLEWVAYISSGSYTIYSADSVKGRFTISRDNAKNSLYLQMNSLRAEDTAVYYCARRAPNSFYEYYFDYWGQGTTVTVSSASTKGPSVFPLAPSSKSTSGGTAALGCLVKDYFPEPVTVSWNSGALTSGVHTFPAVLQSSGLYSLSSVVTVPSSSLGTQTYICNVNHKPSNTKVDKRVEPKSCDKTHTCPPCPAPEFEGGPSVFLFPPKPKDTLMISRTPEVTCVVVDVSHEDPEVKFNWYVDGVEVHNAKTKPREEQYNSTYRVVSVLTVLHQDWLNGKEYKCKVSNKALPASIEKTISKAKGQPREPQVCTLPPSREEMTKNQVSLSCAVKGFYPSDIAVEWESNGQPENNYKTTPPVLDSDGSFFLVSKLTVDKSRWQQGNVFSCSVMHEALHNHYTQKSLSLSPGK
light 1: QIVLTQSPATLSLSPGERATLSCSASSKHTNLYWSRHMYWYQQKPGQAPRLLIYLTSNRATGIPARFSGSGSGTDFTLTISSLEPEDFAVYYCQQWSSNPFTFGQGTKLEIKRTVAAPSVFIFPPSDEQLKSGTASVVCLLNNFYPREAKVQWKVDNALQSGNSQESVTEQDSKDSTYSLSSTLTLSKADYEKHKVYACEVTHQGLSSPVTKSFNRGEC
heavy 2: not shown
light 2: not shown
notes: also called VAR1 (LO115/VHGL-VLGL(M-I)); VL GL (CDRL1 M-I) + VH GL
[1]
  EC50 (nM), NFAT-luciferase reporter, Experiment #1: 4.7 nM
  EC50 (nM), NFAT-luciferase reporter, Experiment #2: 3.83 nM
  Fold Change of Mean EC50 vs. Anti-PD-1: 1.4 fold
  Mean EC50 (nM), NFAT-luciferase reporter: 4.26 nM
[2]
  EC50 (nM), NFAT-luciferase reporter, Experiment #1: 17 nM
  EC50 (nM), NFAT-luciferase reporter, Experiment #2: 13.7 nM
  Fold Change of Mean EC50 vs. Anti-TIGIT: 6.89 fold
  Mean EC50 (nM), NFAT-luciferase reporter: 15.3 nM
[3]
  EC50 (nM), NFAT-luciferase reporter, Experiment #1: 5.57 nM
  EC50 (nM), NFAT-luciferase reporter, Experiment #2: 6.07 nM
  Fold Change of Mean EC50 vs. Anti-TIGIT and Anti-PD-1 combination: 0.93 fold
  Mean EC50 (nM), NFAT-luciferase reporter: 5.82 nM
[4]
  Fold Change vs. anti-PD-1 (mean EC50): 4.82 fold
[5]
  Fold Change vs. anti-TIGIT (mean EC50): 2.85 fold
[6]
  EC50: 0.632 nM
[7]
  EC50: 0.797 nM
[8]
  EC50: 0.314 nM
[9]
  EC50: 0.944 nM
[10]
  EC50: 5.49 nM
[11]
  EC50: 0.303 nM
[12]
  EC50: 0.375 nM
[13]
  EC50: 0.769 nM
[14]
  EC50: 0.584 nM
[15]
  EC50: 1.01 nM
[16]
  EC50: 0.282 nM
[17]
  EC50: 0.346 nM
[18]
  EC50: 3.22 nM
[19]
  EC50: 0.339 nM
[20]
  Kd: 41.1 nM
  koff: 0.0411 s⁻¹
  kon: 999000 M⁻¹ s⁻¹
[21]
  Kd: 0.015 nM
  koff: 6.57e-05 s⁻¹
  kon: 4.37e+06 M⁻¹ s⁻¹
[22]
  Kd: 2.9 nM
  koff: 0.00631 s⁻¹
  kon: 2.17e+06 M⁻¹ s⁻¹
[23]
  EC50: 0.495 nM
[24]
  Kd: 3.42 nM
[25]
  Kd: 19.9 nM
